# T1: LT-α (UniProt P01374 35-205)
# T1 sequence (looked up): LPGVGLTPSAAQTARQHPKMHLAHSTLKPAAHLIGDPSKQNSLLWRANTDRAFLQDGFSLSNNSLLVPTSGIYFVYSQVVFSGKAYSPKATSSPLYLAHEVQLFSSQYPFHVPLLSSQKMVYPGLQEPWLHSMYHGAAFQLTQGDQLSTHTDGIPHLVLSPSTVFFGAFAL
# T2: HuTL1A mutant R103A (mutant number 4057) (human, UniProt O95150 57-251, limits assumed)
# T2 construct: whole entry named
# T2 chain: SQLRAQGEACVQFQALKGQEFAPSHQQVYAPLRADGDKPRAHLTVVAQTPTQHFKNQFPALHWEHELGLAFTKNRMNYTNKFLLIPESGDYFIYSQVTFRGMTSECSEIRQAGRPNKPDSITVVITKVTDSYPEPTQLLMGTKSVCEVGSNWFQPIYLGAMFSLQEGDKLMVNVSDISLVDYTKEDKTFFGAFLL
# T3: HuTL1A mutant G124R (mutant number 4059) (human, UniProt O95150 57-251, limits assumed)
# T3 construct: whole entry named
# T3 chain: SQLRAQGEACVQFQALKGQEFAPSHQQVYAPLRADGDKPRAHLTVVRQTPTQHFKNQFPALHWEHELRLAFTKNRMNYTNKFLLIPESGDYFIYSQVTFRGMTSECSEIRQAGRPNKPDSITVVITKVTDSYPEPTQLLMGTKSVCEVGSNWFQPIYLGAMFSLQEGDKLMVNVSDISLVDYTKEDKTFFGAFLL
# T4: FASL (UniProt P48023 134-281, limits assumed)
# T4 sequence (looked up): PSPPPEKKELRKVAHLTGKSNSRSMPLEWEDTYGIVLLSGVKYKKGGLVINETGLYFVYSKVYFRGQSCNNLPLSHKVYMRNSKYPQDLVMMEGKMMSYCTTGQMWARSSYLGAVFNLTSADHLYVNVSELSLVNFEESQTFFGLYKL
# T5: human TL1A (HuTL1A) (human, UniProt O95150 57-251, limits assumed, biotin-labelled in some assays (site not stated))
# T5 sequence: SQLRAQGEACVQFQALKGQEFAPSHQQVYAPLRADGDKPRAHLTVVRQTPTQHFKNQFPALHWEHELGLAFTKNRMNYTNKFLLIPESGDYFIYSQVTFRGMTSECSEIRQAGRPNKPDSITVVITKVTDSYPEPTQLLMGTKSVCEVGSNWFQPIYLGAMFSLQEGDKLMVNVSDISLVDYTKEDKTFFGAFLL
# Legend:
# [1] = biological target: T1, LT-α; assay: ELISA, coated LT-α
# Method: (§1) In this experiment, ELISA was used to assess the binding ability of monoclonal antibodies to TL1A homologous molecules. Representative members of the TNF ligand superfamily, TNFα, LT-α, LIGHT and FASL, were selected for binding testing. 1 μg/mL of TNFα, LT-α, LIGHT or FASL was coated in a microplate with a carbonate buffer solution at pH=9.6, 100 μL per well, and the microplate was incubated at 4° C. overnight. The microplate was then washed 5 times with PBST, blocked with 300 μL/well of PBS containing 1% BSA, and was incubated at room temperature for 1 hour. After washing 5 times with PBST, about 100 μL each of the M701 monoclonal antibodies and the control antibodies were added to each well, and were incubated at room temperature for 1 hour. After washing 5 times with PBST, 100 μL of HRP-anti-human Fc (Sino Biological) was added to each well, and was incubated at room temperature for 1 hour. After washing 5 times with PBST, 100 μL of colorimetric substrate TMB was added to each well, and color was developed at room temperature for 10 minutes, followed by addition of 1M sulfuric acid to terminate the reaction. OD450 nm was recorded on a microplate reader.
# [2] = biological target: T6, TNFα (UniProt P01375 77-233); assay: ELISA, coated TNFα
# Method: as §1
# [3] = biological target: T2, HuTL1A mutant R103A (mutant number 4057); assay: ELISA on antigen mutant
# [4] = biological target: T3, HuTL1A mutant G124R (mutant number 4059); assay: ELISA on antigen mutant
# [5] = biological target: T4, FASL; assay: ELISA, coated FASL, Ab 100 nM
# Method: as §1
# [6] = biological target: T7, LIGHT (UniProt O43557 74-240, limits assumed); assay: ELISA, coated LIGHT, Ab 25 nM
# Method: as §1
# [7] = biological target: T1, LT-α; assay: ELISA, coated LT-α, Ab 100 nM
# Method: as §1
# [8] = biological target: T5, human TL1A (HuTL1A); assay: cell-based or functional assay
# [9] = biological target: T4, FASL; assay: ELISA, coated FASL, Ab 6.25 nM
# Method: as §1
# [10] = biological target: T7, LIGHT; assay: ELISA, coated LIGHT, Ab 100 nM
# Method: as §1
# [11] = biological target: T6, TNFα; assay: ELISA, coated TNF-α, Ab 100 nM
# Method: as §1
# [12] = biological target: T7, LIGHT; assay: ELISA, coated LIGHT, Ab 6.25 nM
# Method: as §1
# [13] = biological target: T6, TNFα; assay: ELISA, coated TNF-α, Ab 6.25 nM
# Method: as §1
# [14] = biological target: T7, LIGHT; assay: ELISA, coated LIGHT, Ab 0.391 nM
# Method: as §1
# [15] = biological target: T6, TNFα; assay: ELISA, coated TNF-α, Ab 0.391 nM
# Method: as §1
# [16] = biological target: T4, FASL; assay: ELISA, coated FASL, Ab 0.000 nM (blank)
# Method: as §1
# [17] = biological target: T1, LT-α; assay: ELISA, coated LT-α, Ab 0.000 nM (blank)
# Method: as §1
# [18] = biological target: T7, LIGHT; assay: ELISA, coated LIGHT, Ab 0.000 nM (blank)
# Method: as §1
# [19] = biological target: T5, human TL1A (HuTL1A); assay: DLS, antigen and antibody mixed in equal moles
# Method: 60 μM antigen and antibody was mixed in equal moles, incubated at room temperature for 30 minutes, and then the molecular size was detected using UNCLE or SEC.
# T7 sequence (O43557 74-240 limits assumed): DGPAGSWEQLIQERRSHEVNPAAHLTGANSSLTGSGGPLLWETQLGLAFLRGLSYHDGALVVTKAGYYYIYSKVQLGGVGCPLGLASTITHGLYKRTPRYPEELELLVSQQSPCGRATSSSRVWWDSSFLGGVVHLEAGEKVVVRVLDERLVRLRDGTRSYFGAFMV
# T6 sequence (P01375 77-233 limits assumed): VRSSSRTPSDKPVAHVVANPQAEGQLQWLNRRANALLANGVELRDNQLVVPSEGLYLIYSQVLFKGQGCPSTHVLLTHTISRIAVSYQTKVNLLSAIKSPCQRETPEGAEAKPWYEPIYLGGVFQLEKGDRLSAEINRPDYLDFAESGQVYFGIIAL
Binder,binding result [1],binding result [2],binding result [3],binding result [4],OD450 nm [5],OD450 nm [6],OD450 nm [7],"IC50 (read off the curve); SEAP reporter in HEK293T/DR3-NFκB cells with soluble TL1A, OD655 [8] [nM]",OD450 nm [9],OD450 nm [10],OD450 nm [11],OD450 nm [12],OD450 nm [13],OD450 nm [14],OD450 nm [15],OD450 nm [16],OD450 nm [17],OD450 nm [18],Ave Z-dia (nm) of the antigen-antibody complex [19] [nm]
"M701-3966 (antibody, human IgG1, kappa, L234A L235A, V domains shown, Fc-engineered IgG1) VH: ELQLQESGPGLVKPSETLSLTCAVSGVSFSDYHWAWIRQPPGKGLEWIGDINHRGHTNYNPSLKSRVTVSIDTSKNQFSLKLSSVTAADTAVYFCARDFPNFIFDYWGQGTLVTVSS VL: DIQLTQSPGTLSLSPGERATLSCRASQSVSSYLAWYQQKPGQAPRLLIYGASKRATGIPDRFSGSGSGTDFTLTISRLEPEDFAVYYCQQYGDSPLTFGQGTKVEIKR",no binding (tested: 100 nM),no binding (tested: 100 nM),no binding,no binding,0.0914,0.0674,0.0709,~1,0.0525,0.0876,0.0787,0.0568,0.0511,0.0558,0.0517,0.0692,0.0704,0.06,18.6
"M701-4007 (antibody, human IgG1, kappa, L234A L235A, V domains shown, Fc-engineered IgG1) VH: ELQLQESGPGLVKPSETLSLTCAVSGVSFSDYHWAWIRQPPGKGLEWIGDINHRGHTNYNPSLKSRVTVSIDTSKNQFSLKLSSVTAADTAVYFCARDFPNFIFDFWGQGTLVTVSS VL: DIQLTQSPGTLSLSPGERATLSCRASQSVSTYLAWYQQKPGQAPRLLIYGASKRATGIPDRFSGSGSGTDFTLTISRLEPEDFAVYYCQQYGDSPLTFGQGTKVEIKR",no binding (tested: 100 nM),no binding (tested: 100 nM),no binding,no binding,0.089,0.063,0.0706,~1,0.0523,0.0853,0.079,0.0542,0.0553,0.0534,0.0557,0.0648,0.0662,0.0568,18.7
